# According to patent US11466286B2, “Methods and compositions for conferring and/or enhancing herbicide tolerance using protoporphyrinogen oxidase or variant thereof” (FarmHannong Co., Ltd., priority 2016, dated 2022):
# Changes are numbered by the printed parent chain. Names may count otherwise.
# B1: CyPPO13 F373I: CyPPO13 (SEQ ID NO: 4) PPO variant (protein)
# chain: MNPATPEPLNAEVVVIGAGISGLTLAWRLQQGLSARGGSPQAVLLAEASSRVGGCISTQSKDGYRWEEGPNSFTPTPALLNLIAEVGLTDQLVLADAKLPRYIYWEGALLPVPLSPAAALGSRLLSVGGKLRALQGLLGFVPPPPGHEETVRQFFRRQLGSEVAERLVEPFTSGVYAGDPDQLSAVAAFPRVAGLEERYGSLFAGALQALRQRPQPSPAAIQPPPKRGQLGNLRQGLQQLPEALAQKLGDSLRLGWRALQLKRAGELYWVGFETPEGSRWVAARQVVLALPAYEAAALLQELNPPASQLLAEILYPPVAVVALAYPQEALPQPLRGFGHLIPRSQGLRTLGTIWASCLFPERAPQGYHSFLSILGGATDAALARRRGIPPIPALSPEERAQIAHAELSQVLLTRRAEPVYLGERLWPRAIPQYTLGHRQRIAQVQAHLASQTPGIWVCANYLDGVALGDCVRRAEALAQQLLSQV
# modifications: Synthetic CyPPO13
# B2: CyPPO13 A177L + F373I: CyPPO13 (SEQ ID NO: 4) PPO variant (protein)
# chain: B1 chain with A177L
# modifications: Synthetic CyPPO13
# B3: CyPPO13 F373C: CyPPO13 (SEQ ID NO: 4) PPO variant (protein)
# chain: B1 chain with I373C
# modifications: Synthetic CyPPO13
# B4: CyPPO13 F373M: CyPPO13 (SEQ ID NO: 4) PPO variant (protein)
# chain: B1 chain with I373M
# modifications: Synthetic CyPPO13
# B5: CyPPO13 A177C: CyPPO13 (SEQ ID NO: 4) PPO variant (protein)
# chain: B1 chain with A177C, I373F
# modifications: Synthetic CyPPO13
# B6: CyPPO13 A177L + F373L: CyPPO13 (SEQ ID NO: 4) PPO variant (protein)
# chain: B1 chain with A177L, I373L
# modifications: Synthetic CyPPO13
# B7: CyPPO10 F360L: CyPPO10 (SEQ ID NO: 2) PPO variant (protein)
# chain: MIEVDVAIVGGGLSGLSVAWRLQRSAPHYSGVLLEASDRLGGNITTQAAEGFVWELGPNSFAPTPALLQLIAEVGLHSELIRGDRHLPRYIYWRGELYPLEPTRPLALATSNLLSPWGKVRAALGALGFVPPYLGSGDESVDSFFRRHLGQEVAERLVAPFVSGVYAGDPQQLSAAAAFRRIAQLEKLGGSLIAGALRLRRQQPPQPKPPAQVQMRPGELGSFREGLAALPRAIAQQLKAPLHLQTPVEAITPEPKGGYLLRSGEQTWHARSVVLATPAYQTAELVAPFQPAIARALATIPYPTVACVVLAYPAGLGRSVRPGFGVLVPRGQGIRTLGTIWSSCLFPQRTPAGWQVFTSLIGGATDPDLASLREEAIVEQVQQDLTRLLDLPAAKARLLGMKVWRRAIPQYIVGYPQQWQQVTHALTQTPGLFLCSNYAEGVALGDRVEHGNRTAAAVAAYLAGGQS
# modifications: Synthetic CyPPO10
# B8: CyPPO10 A167C: CyPPO10 (SEQ ID NO: 2) PPO variant (protein)
# chain: B7 chain with A167C, L360F
# modifications: Synthetic CyPPO10
# B9: AtPPO1 WT: wild type Arabidopsis thaliana PPO1, PPO susceptible (SEQ ID NO: 5) (protein, listed as Arabidopsis thaliana)
# chain: MELSLLRPTTQSLLPSFSKPNLRLNVYKPLRLRCSVAGGPTVGSSKIEGGGGTTITTDCVIVGGGISGLCIAQALATKHPDAAPNLIVTEAKDRVGGNIITREENGFLWEEGPNSFQPSDPMLTMVVDSGLKDDLVLGDPTAPRFVLWNGKLRPVPSKLTDLPFFDLMSIGGKIRAGFGALGIRPSPPGREESVEEFVRRNLGDEVFERLIEPFCSGVYAGDPSKLSMKAAFGKVWKLEQNGGSIIGGTFKAIQERKNAPKAERDPRLPKPQGQTVGSFRKGLRMLPEAISARLGSKVKLSWKLSGITKLESGGYNLTYETPDGLVSVQSKSVVMTVPSHVASGLLRPLSESAANALSKLYYPPVAAVSISYPKEAIRTECLIDGELKGFGQLHPRTQGVETLGTIYSSSLFPNRAPPGRILLLNYIGGSTNTGILSKSEGELVEAVDRDLRKMLIKPNSTDPLKLGVRVWPQAIPQFLVGHFDILDTAKSSLTSSGYEGLFLGGNYVAGVALGRCVEGAYETAIEVNNFMSRYAYK
# modifications: PEPTIDE (1)..(537) Wild type AtPPO1
# B10: AtPPO1 SLYM: mutated A. thaliana PPO1 with amino acid substitutions Y426M and S305L, PPO-inhibiting herbicide tolerant control (protein)
# chain: B9 chain with S305L, Y426M
# modifications: Synthetic Mutant type AtPPO1
# System: CyPPO13
# Assay: PPO enzyme activity and IC50 by herbicides, CyPPO13 wild type and variants (MBP-PPO fusion)
# Format: biochemical, Synechococcus sp. JA-3-3Ab
# Settings: PPO enzyme activity of CyPPO13 protein, wild type = 100
# Experimental: The enzyme activities of PPO protein and PPO protein variants were examined, and inhibition assay by PPO-inhibiting herbicides was conducted. It was confirmed that the PPO protein has low water-solubility, but in case of being expressed as a fusion protein with MBP (maltose binding protein) (MBP-PPO), the PPO protein is able to be stably expressed as water-soluble form. Therefore, the wild type and variant proteins which were expressed in the form of fusion protein with MBP were used in the present test (refer to FIG. 4).
# In order to express wild type genes and mutant genes of CyPPO10 and CyPPO13 (refer to Example 1 and Example 4), those genes were introduced to pMAL-c2X vector (refer to FIG. 5) respectively, and then cloned to BL21 (DE3) E. coli (CodonPlus).
# The enzyme activity of the purified wild type protein and variant proteins of CyPPO10 and CyPPO13 was measured by the following process.
# At first, a substrate of PPO protein, Protoporphyrinogen IX was synthesized. This process was performed in the space where nitrogen gas is streamed. 6 mg of protoporphyrin IX was dissolved in 20% (v/v) EtOH 20 ml, and stirred under dark condition for 30 minutes. The obtained protoporphyrinogen IX solution was put into a 15 ml screw tube in an amount of 800 and flushed with nitrogen gas for 5 minutes. To this, 1 g of sodium amalgam was added and vigorous shaking was performed for 2 minutes. The lid was open to exhaust hydrogen gas in the tube. Thereafter, the lid was closed and incubated for 3 minutes. The […] was filtered using syringe and cellulose membrane filter. To 600 μl of the obtained […], 2M MOPS [3-(N-morpholino)propanesulfonic acid] was added in an amount of approximately 300 thereby adjusting pH to 8.0. To determine the enzyme activity of PPO protein, a reaction mixture was prepared with the following composition (based on 10 ml): 50 mM Tris-Cl (pH 8.0); 50 mM NaCl; 0.04% (v/v) Tween 20; 40 mM glucose (0.072 g); 5 units glucose oxidase (16.6 mg); and 10 units catalase (1 μl).
# Two hundred microliters (200 μl) of reaction mixture containing a purified PPO protein were placed in 96 well plates, and preincubated for 30 min at room temperature to reduce the oxygen concentration by the reaction of glucose oxidase-catalase. The mineral oil was layered and then the reaction was initiated by adding the substrate, […], to a final concentration of 50 μM. The reaction proceeded at room temperature for 30 min and the fluorescence of protoporphyrin IX was measured using Microplate reader (Sense, Hidex) (excitation: 405 nm; emission: 633 nm). To calculate the PPO enzyme activity, protoporphyrinogen IX solution was kept open in the air to oxidize the solution (overnight). To this, 2.7N HCl was added, and the absorbance at 408 nm was measured. A standard curve was generated using standard protoporphyrin IX, and the PPO activity was measured by calibration of protoporphyrin IX using the standard curve of protoporphyrin IX.
# The final concentration of each herbicide was as follows: […]
row,Molecule,Activity (%)
1,B1,83
2,B2,66
3,B3,86
4,B4,98
5,B5,98
6,B6,68

# System: A. thaliana
# Assay: Seed germination of A. thaliana transformants on ½ MS media containing herbicides
# Format: in vivo, Arabidopsis thaliana
# Settings: T3 lines; 25 μM glufosinate, 25 μM glufosinate+70 nM tiafenacil, or 25 μM glufosinate+30 nM tiafenacil+40 nM saflufenacil; 7 days after sowing
# From the text: T3 generation seeds of each transformant were sown in ½ MS media containing herbicides. Col-0 ecotype (wild type Arabidopsis) seeds were used as a control. The kinds of herbicides and concentration are as follows:
# In FIGS. 31a to 31c, 10-3 refers to CyPPO10 wild type, 10FM-4-7 to the CyPPO10 F360M transgenic line, 10FL-1-9 to the CyPPO10 F360L transgenic line, 10FC-3-5 to the CyPPO10 F360C transgenic line, 10AC-5-4 to the CyPPO10 A167C transgenic line, 13-1 to CyPPO13 wild type, 13FM-3-1 to the CyPPO13 F373M transgenic line, 13FC-1-1 to the CyPPO13 F373C transgenic line, 13FI-2-1 to the CyPPO13 F373I transgenic line, 13AC-1-3 to the CyPPO13 A177C transgenic line, CyPPO13_ALFL to the CyPPO13 A177L+F373L transgenic line, and CyPPO13_ALFI to the CyPPO13 A177L+F373I transgenic line, respectively.
row,Molecule,Seed germination in media containing herbicides
1,B1,germinated
2,B2,germinated
3,B3,germinated
4,B4,germinated
5,B5,germinated
6,B6,germinated
7,B7,germinated
8,B8,germinated

# System: CyPPO10
# Assay: PPO enzyme activity and IC50 by herbicides, CyPPO10 wild type and variants (MBP-PPO fusion)
# Format: biochemical, Thermosynechococcus elongatus BP-1
# Settings: PPO enzyme activity of CyPPO10 protein, wild type = 100
# Method in brief: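 Activity was read as protoporphyrin IX fluorescence (405/633 nm), calibrated with a protoporphyrin IX standard curve, after 30 min at room temperature with 50 μM substrate under mineral oil. The buffer was 50 mM Tris-Cl pH 8.0 with glucose oxidase/catalase and a 30 min preincubation. Enzymes were purified MBP-PPO fusions of CyPPO10 or CyPPO13, wild type and variants, expressed in E. coli.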
row,Molecule,Activity (%)
1,B7,59
2,B8,98

# System: PPO-deficient BT3 E. coli (ΔPPO)
# Assay: Tiafenacil tolerance of BT3 E. coli transformed with CyPPO10, CyPPO13 or AtPPO1 genes (pACBB vector)
# Format: cell-based
# Settings: tiafenacil 0 μM; PPO function complementation
# Experimental: After transforming PPO-deficient BT3 E. coli (ΔPPO) with CyPPO10 or CyPPO13, the transformed BT3 (ΔPPO) was cultured on LB agar plates containing PPO-inhibiting herbicide to examine the growth level of the transformed BT3 (ΔPPO). BT3 (ΔPPO) strain was obtained from Hokkaido University (Japan). The BT3 (ΔPPO) strain is deficient in hemG-type PPO and has kanamycin tolerance (refer to “Watanabe et al., Dual targeting of spinach protoporphyrinogen oxidase II to mitochondria and chloroplasts by alternative use of two in-frame […], JBC 2001 276(23):20474-20481; Che et al., Molecular Characterization and Subcellular Localization of Protoporphyrinogen Oxidase in Spinach Chloroplasts, Plant Physiol. 2000 September; 124(1):59-70”).
# The cloned plasmid was added to 100 μl of BT3 competent cell (Hokkaido University; Japan) respectively, thereby transforming by a heat shock method. The transformed E. coli with each PPO gene was cultured in LB (Luria-Bertani) agar media comprising Chloramphenicol (Duchefa).
# For seed culture of E. coli transformed with respective genes, each single colony of E. coli transformant as provided above was cultured in 3 ml of LB broth containing chloramphenicol overnight (220 rpm, 37° C.), and 50 to 100 μl were subcultured in a new 3 ml of LB broth, and they were cultured until absorbance (OD600) became 0.5 to 1, and they were diluted with LB broth to absorbance (OD600) of 0.5. The diluted solution was serially diluted again 5 times by a factor of one tenth with LB broth. […] The LB Agar media were incubated at 37° C., under light condition, and level of inhibiting growth was observed after 16 to 20 hours of incubation.
# Plant physiol. 2003 133:736-747).
row,Molecule,Growth of BT3 transformant on medium containing no herbicide
1,B9,recovered
2,B10,recovered
